The values below come from patent KR20220147769A (dated 2022).

Sequences and labels used below:
B1: RB6 (antibody, V domains shown)
VH: EVQLLESGGGLVQPGGSLRLSCAASGFTFSSYDMSWVRQAPGKGLEWVSGISYSGGSTYYADSVKGRFTISRDNSKNTLYLQMNSLRAEDTAVYYCARDVNFVPLVTFDYWGQGTLVTVSS
VL: QSVLTQPPSASGTPGQRVTLSCTGSSSNIGSNSVTWYQQLPGTAPKLLIYDDNQRPSGVPDRFSGSKSGTSASLAISGLRSEDEADYYCGTWDYSLSAYVFGGGTKLTVL
notes: also called clone RB6; antibody (iii)
B2: RD3 (antibody, V domains shown)
VH: EVQLLESGGGLVQPGGSLRLSCAASGFTFSDYAMSWVRQAPGKGLEWVSWIYSGSGNKYYADSVKGRFTISRDNSKNTLYLQMNSLRAEDTAVYYCARFPIARTSNSQSSYDGMDVWGQGTLVTVSS
VL: QSVLTQPPSASGTPGQRVTISCSGSSSNIGSNAVSWYQQLPGTAPKLLIYADNKRPSGVPDRFSGSKSGTSASLAISGLRSEDEADYYCGAWDSSLNAYVFGGGTKLTVL
notes: also called clone RD3; antibody (iv)
B3: RD10 (antibody, V domains shown)
VH: EVQLLESGGGLVQPGGSLRLSCAASGFTFSDYAMSWVRQAPGKGLEWVSAIYPGGGSTYYADSVKGRFTISRDNSKNTLYLQMNSLRAEDTAVYYCARNLFGFDYWGQGTLVTVSS
VL: QSVLTQPPSASGTPGQRVTISCTGSSSNIGSNAVYWYQQLPGTAPKLLIYDDSNRPSGVPDRFSGSKSGTSASLAISGLRSEDEADYYCGSWDDSLSAYVFGGGTKLTVL
notes: also called clone RD10; antibody (v)

This test deals with T1, SARS-CoV S protein RBD antigen (SARS-CoV, UniProt P59594 306-527).
T1 construct: also called SARS-CoV RBD
The experiment in a line: ELISA, 0.1 μg antigen coated, IgG4. A general note: In an ELISA, binding on a coated surface is turned into a signal by an enzyme label.
For the molecule B1, the binding result is listed as “binds”.

In the case of B2, the binding result is “binds”.

Take B3: the binding result is reported as “binds”.
